This experiment has as its target GST-MdPP2AC (apple (Malus × domestica Borkh.)). Kind of experiment: MST; GST-MdPP2AC labelled with RED-NHS dye, 100 nM, in 0.05% PBS Tween buffer; MdSnRK2.6 titrated (3.81 × 10^−4 to 25 nM as printed); Monolith NT.115.

In general, Kd refers to the free concentration of one partner at which half of the binding sites on the other are occupied at equilibrium, for simple one-to-one binding. On to MdSnRK2.6-His (enzyme), for which the Kd was found to be 0.109 µM.

Source of the values: paper PMC10243991.
